From US20130078263A1 come the findings set out here.

The experiment deals with HLA-DR on human peripheral blood mononuclear cells (human). The experiment is described as follows: cell-based or functional assay.

B1: IMMU-114 (antibody, from a related filing, IgG4, V domains shown)
VH: QVQLQQSGSELKKPGASVKVSCKASGFTFTNYGMNWVKQAPGQGLKWMGWINTYTREPTYADDFKGRFAFSLDTSVSTAYLQISSLKADDTAVYFCARDITAVVPTGFDYWGQGSLVTVSS
VL: DIQLTQSPSSLSASVGDRVTITCRASENIYSNLAWYRQKPGKAPKLLVFAASNLADGVPSRFSGSGSGTDYTFTISSLQPEDIATYYCQHFWTTPWAFGGGTKLQIKR
B1 returned a frequency of CD3+ class II-DR+ cells, IMMU-114-treated MLR, representative result of 4%; a frequency of CD3+ class II-DR+ cells, IMMU-114-treated resting PBMCs, representative result of 0.5%; a frequency of CD11c+ class II-DR+ cells, IMMU-114-treated MLR, representative result of 2.3%; a frequency of CD11c+ class II-DR+ cells, IMMU-114-treated resting PBMCs, representative result of 0.4%. Also, the frequency of CD14+ class II-DR+ cells, IMMU-114-treated MLR, representative result stood at 2.2%; the frequency of CD14+ class II-DR+ cells, IMMU-114-treated resting PBMCs, representative result worked out at 0.5%; the reduction of live mDC1 in human PBMCs after 3 days with 5 µg/ml antibody (flow cytometry) is 59.2%; the reduction of live mDC2 in human PBMCs after 3 days with 5 µg/ml antibody (flow cytometry) is 85%. The reduction of pDCs in human PBMCs (flow cytometry) turned out to be 50%.
